Test results as given in patent US20240124563A1.

Tests used:
[1] = molecular target: human MSLN-R3-rFc protein (human) (UniProt Q13421); experiment: ELISA, antibody 4 nM
[2] = molecular target: human MSLN-R3-3 polypeptide (purchased from GL Biochem, Cat. No. 406676) (human); experiment: ELISA, antibody 1 nM
[3] = molecular target: human MSLN-R3-rFc protein (human) (UniProt Q13421); experiment: ELISA, antibody 0.032 nM
[4] = molecular target: human MSLN full-length protein, recombinant, on CHO-K1 or HEK293T cells (human) (UniProt Q13421); experiment: FACS, CHO-K1-hMSLN-2C8 cells
[5] = molecular target: human MSLN full-length protein, recombinant, on CHO-K1 or HEK293T cells (human) (UniProt Q13421); experiment: FACS, HEK293T-hMSLN-B8 cells
[6] = molecular target: human MSLN protein endogenously expressed on tumor cells (Hela, OVCAR3) (human) (UniProt Q13421); experiment: FACS, OVCAR3 cells, antibody 4 nM
[7] = molecular target: human MSLN protein endogenously expressed on tumor cells (Hela, OVCAR3) (human) (UniProt Q13421); experiment: FACS, OVCAR3 cells, antibody 2 nM
[8] = molecular target: human MSLN protein endogenously expressed on tumor cells (Hela, OVCAR3) (human) (UniProt Q13421); experiment: FACS, OVCAR3 cells, antibody 20 nM
[9] = molecular target: human MSLN protein endogenously expressed on tumor cells (Hela, OVCAR3) (human) (UniProt Q13421); experiment: FACS, OVCAR3 cells, antibody 0.8 nM
[10] = molecular target: human MSLN protein endogenously expressed on tumor cells (Hela, OVCAR3) (human) (UniProt Q13421); experiment: FACS, OVCAR3 cells, antibody 0.032 nM
[11] = molecular target: human MSLN protein endogenously expressed on tumor cells (Hela, OVCAR3) (human) (UniProt Q13421); experiment: FACS, OVCAR3 cells, antibody 0.0064 nM
[12] = molecular target: human MSLN protein endogenously expressed on tumor cells (Hela, OVCAR3) (human) (UniProt Q13421); experiment: FACS, OVCAR3 cells, antibody 0.00128 nM
[13] = molecular target: human MSLN full-length protein on transfected cells (CHO-K1-hMSLN clones 2C8, 2D11, 2C5; HEK293T-hMSLN clones B8, 2A4, 2A7) (human) (UniProt Q13421); experiment: FACS, CHO-K1-hMSLN-2C8 cells, antibody 0.8 nM
[14] = molecular target: human MSLN full-length protein on transfected cells (CHO-K1-hMSLN clones 2C8, 2D11, 2C5; HEK293T-hMSLN clones B8, 2A4, 2A7) (human) (UniProt Q13421); experiment: FACS, CHO-K1-hMSLN-2C8 cells, antibody 0.16 nM
[15] = molecular target: human MSLN full-length protein on transfected cells (CHO-K1-hMSLN clones 2C8, 2D11, 2C5; HEK293T-hMSLN clones B8, 2A4, 2A7) (human) (UniProt Q13421); experiment: FACS, CHO-K1-hMSLN-2C8 cells, antibody 0.032 nM
[16] = molecular target: monkey MSLN full-length protein on HEK293T cells (monkey); experiment: FACS, HEK293T-monkey-MSLN cells, antibody 20 nM
[17] = molecular target: monkey MSLN full-length protein on HEK293T cells (monkey); experiment: FACS, HEK293T-monkey-MSLN cells, antibody 0.16 nM
[18] = molecular target: chimeric human MSLN-R3 / chicken MSLN-R1-2 protein on HEK293T cells (clone A5) (chicken; human); experiment: FACS, HEK293T-hR3/chickR1-2-A5 cells, antibody 0.2 nM
[19] = molecular target: human MSLN full-length protein, recombinant, on CHO-K1 or HEK293T cells (human) (UniProt Q13421); experiment: competitive FACS on CHO-K1-human MSLN-2C8 cells vs Biotin-Tab142; competitor at 4 nM
[20] = molecular target: human MSLN full-length protein, recombinant, on CHO-K1 or HEK293T cells (human) (UniProt Q13421); experiment: competitive FACS on CHO-K1-human MSLN-2C8 cells vs Biotin-Tab142; competitor at 8 nM
[21] = molecular target: human MSLN full-length protein, recombinant, on CHO-K1 or HEK293T cells (human) (UniProt Q13421); experiment: competitive FACS on CHO-K1-human MSLN-2C8 cells vs Biotin-Tab131; competitor at 8 nM
[22] = molecular target: human MSLN full-length protein, recombinant, on CHO-K1 or HEK293T cells (human) (UniProt Q13421); experiment: competitive FACS on CHO-K1-human MSLN-2C8 cells vs Biotin-Tab142; competitor at 0.8 nM
[23] = molecular target: human MSLN full-length protein, recombinant, on CHO-K1 or HEK293T cells (human) (UniProt Q13421); experiment: competitive FACS on CHO-K1-human MSLN-2C8 cells vs Biotin-Tab142; competitor at 100 nM
[24] = molecular target: human MSLN full-length protein, recombinant, on CHO-K1 or HEK293T cells (human) (UniProt Q13421); experiment: competitive FACS on CHO-K1-human MSLN-2C8 cells vs Biotin-Tab142; competitor at 1.6 nM
[25] = molecular target: human MSLN full-length protein, recombinant, on CHO-K1 or HEK293T cells (human) (UniProt Q13421); experiment: competitive FACS on CHO-K1-human MSLN-2C8 cells vs Biotin-Tab142; competitor at 0.32 nM
[26] = molecular target: human MSLN full-length protein, recombinant, on CHO-K1 or HEK293T cells (human) (UniProt Q13421); experiment: competitive FACS on CHO-K1-human MSLN-2C8 cells vs Biotin-Tab142; competitor at 0.0064 nM
[27] = molecular target: human MSLN full-length protein, recombinant, on CHO-K1 or HEK293T cells (human) (UniProt Q13421); experiment: competitive FACS on CHO-K1-human MSLN-2C8 cells vs Biotin-Tab142; competitor at 0.0128 nM
[28] = molecular target: human MSLN full-length protein, recombinant, on CHO-K1 or HEK293T cells (human) (UniProt Q13421); experiment: competitive FACS on CHO-K1-human MSLN-2C8 cells vs Biotin-Tab131; competitor at 0.0128 nM

human MSLN full-length protein, recombinant, on CHO-K1 or HEK293T cells (human), sequence (Q13421 other isoform, or with tags, fused parts or gaps limits assumed): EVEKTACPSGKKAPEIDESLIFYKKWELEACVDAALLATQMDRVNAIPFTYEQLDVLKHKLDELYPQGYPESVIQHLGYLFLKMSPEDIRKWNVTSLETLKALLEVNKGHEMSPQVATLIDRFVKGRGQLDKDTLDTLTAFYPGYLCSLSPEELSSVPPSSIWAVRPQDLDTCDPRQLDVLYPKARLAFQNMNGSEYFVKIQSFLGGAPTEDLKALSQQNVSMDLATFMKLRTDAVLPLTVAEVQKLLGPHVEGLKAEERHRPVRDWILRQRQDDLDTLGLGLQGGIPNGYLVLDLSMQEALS
human MSLN full-length protein on transfected cells (CHO-K1-hMSLN clones 2C8, 2D11, 2C5; HEK293T-hMSLN clones B8, 2A4, 2A7) (human), sequence (Q13421 other isoform, or with tags, fused parts or gaps limits assumed): as above
human MSLN protein endogenously expressed on tumor cells (Hela, OVCAR3) (human), sequence (Q13421 other isoform, or with tags, fused parts or gaps): as the sequence (Q13421 other isoform, or with tags, fused parts or gaps limits assumed) above, with P14R counted along it
human MSLN-R3-3 polypeptide (purchased from GL Biochem, Cat. No. 406676) (human), sequence (peptide, as listed by the source): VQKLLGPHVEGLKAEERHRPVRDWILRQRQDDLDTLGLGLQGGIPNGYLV
chimeric human MSLN-R3 / chicken MSLN-R1-2 protein on HEK293T cells (clone A5) (chicken; human), sequence (Q13421 495-614, change not shown): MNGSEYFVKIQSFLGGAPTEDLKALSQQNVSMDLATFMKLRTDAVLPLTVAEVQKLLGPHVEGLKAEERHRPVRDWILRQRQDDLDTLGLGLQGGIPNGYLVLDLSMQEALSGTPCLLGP

hIgG1 (antibody)
OD450 nm [1]: 0.15
OD450 nm [2]: 0.06
OD450 nm [3]: 0.11
Max MFI [4]: 80
Max MFI [5]: 77
FACS signal (MFI) [6]: 74
MFI [7]: 255
FACS signal (MFI) [8]: 78
MFI [8]: 329
FACS signal (MFI) [9]: 76
FACS signal (MFI) [10]: 75
FACS signal (MFI) [11]: 74
FACS signal (MFI) [12]: 75
FACS signal (MFI) [13]: 80
FACS signal (MFI) [14]: 59
FACS signal (MFI) [15]: 59
FACS signal (MFI) [16]: 84
FACS signal (MFI) [17]: 85
MFI [18]: 73
MFI of Biotin-Tab142 [19]: 43100
MFI of Biotin-Tab142 [20]: 23000
MFI of Biotin-Tab131 [21]: 13000
MFI of Biotin-Tab142 [22]: 44300
MFI of Biotin-Tab142 [23]: 41200
MFI of Biotin-Tab142 [24]: 22700
MFI of Biotin-Tab142 [25]: 23300
MFI of Biotin-Tab142 [26]: 43700
MFI of Biotin-Tab142 [27]: 24100
MFI of Biotin-Tab131 [28]: 12600
